{"source": "paper PMC9079162", "target": "human complement regulatory factor H (hfH) (human) (UniProt P08603)", "sequence (P08603 19-1231)": "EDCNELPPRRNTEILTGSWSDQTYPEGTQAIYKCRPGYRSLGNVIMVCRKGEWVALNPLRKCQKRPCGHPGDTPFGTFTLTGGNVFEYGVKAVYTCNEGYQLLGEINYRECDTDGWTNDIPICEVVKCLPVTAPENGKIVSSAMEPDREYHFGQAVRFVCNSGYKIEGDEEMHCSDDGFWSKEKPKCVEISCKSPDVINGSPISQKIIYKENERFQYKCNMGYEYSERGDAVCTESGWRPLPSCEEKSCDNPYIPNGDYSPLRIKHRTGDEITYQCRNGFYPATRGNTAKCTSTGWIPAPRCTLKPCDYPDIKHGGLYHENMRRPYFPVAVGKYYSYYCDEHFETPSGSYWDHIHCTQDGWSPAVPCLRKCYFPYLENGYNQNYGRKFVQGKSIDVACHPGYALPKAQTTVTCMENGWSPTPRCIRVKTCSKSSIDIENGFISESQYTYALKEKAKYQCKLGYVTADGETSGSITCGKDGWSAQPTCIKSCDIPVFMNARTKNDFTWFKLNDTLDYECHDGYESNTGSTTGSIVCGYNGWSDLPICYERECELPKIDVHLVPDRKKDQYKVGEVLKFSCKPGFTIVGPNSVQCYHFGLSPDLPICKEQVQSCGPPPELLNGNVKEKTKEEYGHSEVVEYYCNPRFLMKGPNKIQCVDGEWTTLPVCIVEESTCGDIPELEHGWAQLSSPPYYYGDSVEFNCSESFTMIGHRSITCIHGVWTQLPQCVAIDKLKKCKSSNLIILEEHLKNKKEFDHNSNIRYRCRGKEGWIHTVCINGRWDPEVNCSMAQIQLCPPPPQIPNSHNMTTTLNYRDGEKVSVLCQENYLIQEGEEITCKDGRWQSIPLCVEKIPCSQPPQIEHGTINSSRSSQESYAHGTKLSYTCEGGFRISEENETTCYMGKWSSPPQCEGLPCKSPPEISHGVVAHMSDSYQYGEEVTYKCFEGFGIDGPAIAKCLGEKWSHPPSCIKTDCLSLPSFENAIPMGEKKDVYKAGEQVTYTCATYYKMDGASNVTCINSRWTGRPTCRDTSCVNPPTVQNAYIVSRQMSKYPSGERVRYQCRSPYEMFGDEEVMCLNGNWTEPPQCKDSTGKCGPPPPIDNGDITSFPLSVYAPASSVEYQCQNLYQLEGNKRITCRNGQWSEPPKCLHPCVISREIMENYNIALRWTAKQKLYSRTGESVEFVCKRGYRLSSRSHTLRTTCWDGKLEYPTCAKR", "experiment": "SPR", "data": [{"substance": "factor H binding protein (fHbp) variant1-2,3.x from MenB clinical isolate NL096 (from UniProt E6MV22 20-274) (natural protein)", "values": [{"measurement": "Kd", "result": 30.4, "unit": "nM"}]}]}
